Reference: PMC8531726

What follows are sequences tested on T1, Zur (Pseudomonas aeruginosa), ORF:f39b2fc0 (assay: EMSA). Conditions: EMSA: 30 ng DNA, 500 nM Zur, 5X Zn-less binding buffer (50 mM Tris, 200 mM KCl, 50 mM MgCl2, 5 mM DTT, 25% glycerol; 5X [sic], pH not given), 5 uM ZnCl2 ….
T1 sequence: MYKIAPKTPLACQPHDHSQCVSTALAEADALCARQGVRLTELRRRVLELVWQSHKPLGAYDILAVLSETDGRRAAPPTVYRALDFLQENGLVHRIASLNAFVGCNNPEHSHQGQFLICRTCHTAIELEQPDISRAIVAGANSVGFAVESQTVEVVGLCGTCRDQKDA

Sequence | binding
ATGGGCCTGGGCGGCGAACGGCAGCAAGACGAGGGCTAACAGCAGTGGGCGCATGAACGGGACTCCGGCAAGGAAGGAAAAGAGTTTGTTACGTTATAACGAATTTTTCCGCCTGCCTAGCCTGGCCGATTTGGCCCCTACGCGCCGACGTGGGAGCATGGCGCGATTCGCTTGTGGAGAAAC (double strand) [pPA4063] | binds
GAGCGCCATGATCTGCTCGGTTGCGGTCATCTTTCCTCCTGGGGGGCATGCCCGGTTGAGAGTGGGGTCCTGTGCTTCGAGGGATACGGCGAGCGAGACGTTCCCTCGCCTCGATGAAGAAGAAACGGCGGGCATTCTTCATTCGAAGAAATGTTATGTTATAACTTATAAGTATTTATAATTCATACCTGCCGACCATGACCCCCCATTCCTCCCCGCACCGTCTTCCTCCGCTGCGGCTGGCCCGCGCCGTGCCGTTCCTCTACCTGCTTC (double strand) [pPA1922] | binds
ACTTTCCCGTTCCTCTTCGCCGGCAGGCATGCGGACATTGCCGCTGCACGTCGGCACGACGCCATGCAGAGTGGCTACGCGGGTCTACCGACACAAAAAGAAATAATATAACATCCCAATAAATACGCCGATCCGACCCCGTCGCCCTTCCTCCGGGAAGGGCCTGGGTTCGCTTTGGCCTGAAAAAAGTCCGACCCA (double strand) [pznuD] | binds
AGAAGTCCTGCTGGGCTTCGTCCATGTAGGCAGCGTCGGGCTGGGCAAGCAGTTCCTGTTCGGTCATGGGCTGAACCTGGGAAATTTAAAACGTTATACTATAACAATTAACACCACAATCGATGGCCCGCCAATCGCCTTCCGGCTACCCTGGGCCCACGTCATCCCGGGATCCACCGATGCGCCGCGTCCTCCGCCTTTACT (double strand) [pdksA2] | binds
GGCTGGGCTGGTCGTCGGAAAAGAGGGATGAGTATCACAGCCTGGCGGCGAGAAGCGAGATAGAGCCGGGCATTGTATTGCGAGGCCGGAATCGAACTGGTAGCGTTATAGTATATCATTTCTTTTCTGGTGCGATTTCCCATGAGAGTCAGTGTGTCGCTTGTCCTCGGTGTCGGCCTCGGTTGCAGCAGTCCGGCGCTCTGGGCGGAAACGGAAAGTCCCGCGG (double strand) [pzrmA] | binds
GTGCTGCACACAGACTCTCGTCTTCCAGTCAAGAGCCTTGGGATGCAGACTGTTTTTCAAATCATGACAACTTCTTAACGCGCATTGTTATAAAGTTGCGGGCGTTTGCGCCGGCCTGGCCGGTACCTTCGAGTTTTGCCTGGAGTGAAGATGAGAGTCGACCTGGAC (double strand) [pPA2439] | binds
CTCTGCCAGACCAGTTCCAGCACGCGCCGCCGCAGTTCGGTCAGGCGCACGCCCTGGCGCGCGCACAGCGCATCGGCCTCGGCCAGCGCGGTGCTGACGCACTGGCTGTGGTCATGGGGCTGGCAGGCCAGCGGGGTCTTGGGCGCAATCTTGTACATGGGCTGCGACGCTCGAGGGTAGAGACGTTATTATATTACCCGCTAACCACCTTTCA (double strand) [pznuA] | binds
CATAGCAGGCCGGCGTGAAGAAAATGTGATGACCCGGGAAGCTGCGCCAGGGCGTGGGGTCCGGCGAAGAAAGACTGCACAAGCGAATTGTTATAGTATAACATTTTATTCAATCCAGATCGTTCAAGGCTTGACTGGAAACGGTGCGGATGTTCCCATCCGGCCCGTTCCAGGTGCCTCCTGCCGCCGCGCAGGAGGTGAAACGGGAAGCCGGTGCGTCACTTCGGTGA (double strand) [pPA2911] | binds
TCGAGCAGCCGAATGGTCGCCGGGAACTCTTTCCGGAGTTGCGAATTATTCTTATCGGAGTAATATGTAACTATATAACATTATGTAGGAGGCATCCCCATGAAACCCGGCATCCATCCCGAATACCGTCCCGTCCTGTTCCATGACACCTCGGCCGACGTGTACTTCCTGATCGGCTCCACC (double strand) [prpmE2] | binds
